The values below are quoted from earlier work in PMC1775043.

This data set has as its target hnRNP A2 (Homo sapiens) (UniProt P22626). The data set can be described thus: FCS.

For hnRNP A2 (from UniProt P22626), the Kd (as a rule, the constant that tells how readily two partners part at equilibrium) was 0.1 nM.
